Data as given in the domain aggregation screens of Martell et al. (2025).

Assay: soluble fraction after stress (log2 fold change); higher = more stays soluble; pooled small domains, quantitative proteomics
Conditions: stress: 75 degC
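Note: 20 min heating vs room temperature control held 20 min.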

Row | Sequence | soluble fraction (log2)
1 | HMQKKEVTVPEVRSKSLKEAAQILSEQNLKYETEPVNVENPDMVVIDQFPKPGGKISEQSVIILYLR | 0.697
2 | HMLDDDAGMIQAILRKAPGHYLPLHDKSDPASIQAQLGISKAQFKRAVGTLMKQGLIRQVKGDGLYLTQ | -0.271
3 | HMETGLSNYEFKRIREQAEALLSDGQVRRINDLVDSIKNENAEKVIRVIRFLIDTEELILEDDRVSAKKS | -0.615
4 | HMSAATGIINTDNVNIRSGPATTYDAVGRLNQGSSVEILSSRNDWYQIQANSLKGWVRNDLLNVQK | -0.00758
5 | HMNQTGQYENAAKRFNQLITIDSSDKRAYLQLGISNYNLGNKEKADSLFNIIRNSKDKLLIEELDNFLT | -0.102
6 | HMKEVVVPDYFLKQLQKNKKAFITFNNFSPSHKREYVEWITEAKTEETKNRRMKSAIEWMSEGKSRNWKYI | -0.589
7 | HMAVVIPDVKGMTIEEAAPFLAEKGIRYNIIDSVFSKDVDPGAIVEIVPTPGSKVKEGRIVFVTINAK | -0.774
8 | HMSQTPDLQQERANLGDNADARIEAVDLWANKFFPEEHADAILQIGQTAKGIEALEFIMSKV | -0.0375
9 | HMINFKVKNVQDVGSRLDKFLVTNIPEFSRSKIQKHIKNGKVMVNGLLKKTGYKLEINDEINILNN | -0.521
10 | HMTQTGEVIRWDAERGFGFIATADGRRHVFFHVRDFRGGAAPGVGLRVGFEEIQVGGKGPRAMDVRPL | -1.28
11 | HMNAPKKPLSAYFLFSQEERLKVKAENPDYSITEVAKELGKRWATLNPDIKTVYEQRYQDARRIYETEMNT | -0.372
12 | HMNTQGWEIFEGRITTADTDLNPSGWIRIDGQRIFVISDAGFIDKGKEVSILSVDGNRVLVRK | -0.646
13 | HMTLPELTDRELQILQLLSVGNSSQKIAKQLNISTHTVSTHRKQLLRKLGAQNGADLIRRAQKLGIL | -1.78
14 | HMEVTLEEKLSYVEEYAKVHSHFSFRDLLKKQASKTQIVVTFLAILELMKTGKIQITQEHIFDDIVITAK | 0.0631
15 | HMGPGDTTIPTTIIGMSLEEARNELSAAGLLVARIIPVDSNSRTGTVLKITPDAGSIIKAGSGVELEIAS | -0.101
16 | HMAMLSKREAEILKLTAKGHSSTDIAQRLTISVNTVEFHRRRIMQKLNAANVAEAVGKAAELGLFF | -2.47
17 | HMDLMSTNEKLLYTMRYLISKSLDGAITEEEIRRLDRLIIENSQARAYYVEYLQIHTHLRKLMQQNPELK | -2.39
18 | HMENTELIELRKKRNLSQSQLAELLDLTRNQIANYESGRRIPDQETKQIIAGFFEMPAEEIFAG | -0.086
19 | HMDSQKKNETLSSTADEIIKNYAGKRDLSEESMEQLEQFQKDMRGADVNIFTAAQIRMLDQIFQENLH | 0.221
20 | HMAELNLPVRKIGGEDYYYRQVKKKETIYGISKELGITKEDIIKYNPSVASGLQRNQILYFPVKDFK | -0.327
21 | HMGSKEQELVILNNILERQLQAINLQKSAAGPMVNLRNVHNTLTKLVEAAGLKNVETYFTDPVIGAAQ | -0.0941
22 | HMIGELVVEDLAAASEINVDTIRYYQRLGLLEPPRRRGRRAVYDHTHLERLAEIRRLAGAGFTLAQIGRLK | -3.19
23 | HMAMDITLPLAEVRRQSLEQIERQYLNELMSKHLGRINRAAEAAGITTRQLHKLLTKYSIRKEDFK | -1.25
24 | HMETYTVSSKDGYANVRNEATVNSDLIAELKNGTLVTKFKEKGEWYYIEFEREDGTPFDYGYIHKSQLK | -0.00382
25 | HMKEDFPLLEQLRYTGEGADVTGTAEKMESIQALRSAADSGGFRATLGDIQQIPGGGLRFTLSLRGSR | -0.0408
26 | HMYMWQVEDLIRANGLDIERIKDSIIRPYELDEERKRELTQWYEDLIDMMRREGVAQSGHLQIN | -3.28

Row | Sequence | soluble fraction (log2)
27 | HMQKPELLAPAGSLEKAKTAFKYGADAVYMGTSNLSLRSRVTVDDDELIKTIEYAHSINKKVYAALNIYAR | 0.249
28 | HMDAIDPKTVTSWADLWKPEYKSSLLLTDDAREVFQMALRKLGYSGNTTDPKEIEAAYNELKKLMPNVAAF | -0.193
29 | HMDDHLSFLAARLPDGASFDTDFDALGIDSFGMIALRAEVEERLGEQIADSDWTKVERPSEILAMLERK | -0.204
30 | HMSGVSESIEKKIQYLLLEKPLPLHDLIEAIEIGKEEDRLKVLRSLMDSDTVKIEDDLYHWNA | -0.133
31 | HMTPDDSYIAGYAAGILKHQFLIDAPELIVRNGTITIPADKVSAGDRAKVVQILSGIPGVTRVEVG | 0.224
32 | HMQYALEDDLDSAIKLLTGKGLSGTVAWGWSDTYINVGKKSYSMEFIAKMLLRLGEGSRVTIQVDPA | -4.62
33 | HMDSDRAARLSSLTPQQFRVLRMVSEGQLNKQIAYQLNISEATVKSHVSAILQKLGVNSRTQAVILATRLD | -3.37
34 | HMENPLVEVVVPVLNEERILKANIETLHHFLRTQPGFNFRITIADNGSTDKTQAIANDLTNSHAVIRV | -0.151
35 | HMDLEIENYDLREILNLFKLDYNFDNVDLKRAQKIALKTHPDKSNLPKEYFMFFMKAFQIVQQIYYYRY | -0.441
36 | HMKNNNIIFSEFLKEVENGRVVEVRIQGNNIQGIMSNGKEFTTYSPNYPNLIEKLTETGVSISAAPL | 0.434
37 | HMDKEVMEAVLRILYDDDFNPDQRDAILYFFVQELDQRTISEITGAKIGTVKKRIHDGLKKLRQKLAKEDL | -2.04
38 | HMFNVKAYEKAVKSYITKRKPLGEALDEEIMDELSVKFGIVDDALEDLFKQIQDAGISIVDKDGNPSPLAL | -0.792
39 | HMNSLFPLSLKYLREQANITQAELAQKLDVTQQAVGRWERGQTSPDYETLKRLSVLFNVSVDYLLGV | -1.1
40 | HMQEEFVAPDVKDGAIVLHKAFGEGTVTKIDKAQKHIRVTFGVGEKTFIFPDAFKQGFLRMKG | 0.303
41 | HMTKPAEVRIDELMNAAQTLFLAKGVEATTISEIIASVGVAKGTFYHYFESKQHIVEALKKRYID | -1.85
42 | HMTGTVKVNSLNVYKSASLDSEVKDTLVLNTKVTIAENGQVTDGIYVWGRLQSGEGYVQMNNLTL | -0.418
43 | HMKSVTAPLPGTVTQILVKVGDAVKAGDTVLMLEAMKMENSITAEAAGTVKAIRVEKGAQVQGGDVLIEM | 0.157
44 | HMNMPYGTVKWFNDAKGFGFIAPEDGSADVFVHFSAINSKGFRSLQEGQRVSYEVTTGPKGAQAAGVTPVT | -0.234
45 | HMTISIAEQIFEQLEREILSGAYPRGELLTETKLSEKLGVSRTPIREALRRLDQEHIIKMTTKGAFVLGI | -2.4
46 | HMQIIGEQNQKDFIALFGAILRMRNLLLSFDEFKGNELISERDLQDYLGRYQDLRDEWRNKRRER | -0.0814
47 | HMKKIYEEVSEAILTMIKNGTLKPGDKLLPVHQLAEQFQVGRSAVREALSALRAMGLIEMKQGEGTYVKNF | -1.52
48 | HMLIDSNNYFFYKVKPKEGFYSLQKKLGVNRSEIEKHNPSLINEVLKEGMILKIPKYLLNFDLN | -1.08
49 | HMGHTKLVVDIVEELKLEQGALLPILHAIQDELGYVPTKSVPFIADSLNLSRAEVHGVISFYHYFR | 0.153
50 | HMNQDMINFDKLSVRLKNVLIENNLKTVDSLLNYPAEEFEYLTNLGEKTLQELLTYRNELAASNNIQ | -0.51
51 | HMQKRDQKKRANMLDSLKVGTRIVTIGGIFGEIAKIKDDRIRIKVAEDVEIWIRRAAVGTVIT | -1.94
52 | HMQRYVVDENLKLDKKDINHIINVMRLNVNDQIKLINNGTIYDAIITKIEKNNVLYEIIKKEESK | -0.661

Row | Sequence | soluble fraction (log2)
53 | HMAVGTASNLIGKDIEAYAPIDGSQSSDDTKTISGKVESVHIKDGVVYMNVKDSQSENIIEVEYGALIKVN | 0.251
54 | HMRRPRGVFNLVPRGFKRFGFITPDGGGEDMFAHLENVRAGHVVEDRNAVEYGIGRGPDGRDQAVDIVPVP | -0.0889
55 | HMRSNADALIGRTARVSQTIVENGFGRVALDGDDWKAQAADGSRIEEGQNVIVKDRDSIILTVEKE | 0.243
56 | HMEDYTPLQELGLKARYIELLEKGGIFSVEDLVQKSVDDLKDIDGIGEKTAKEIWEIVDSMVDF | 0.0226
57 | HMDGLDFIINENGKIANINEEGELLAKGENIMLGYYKDSISTNNTINNGWLHTGDIAKIDNDGFIYL | -0.0909
58 | HMSSTSISFNDFQKYWLSNDIKSFQLREDKMTVQGSLKNGTAYETVVPSERLFQFIGQHPKD | 0.863
59 | HMNKYYQQLLQADPTGFIDPFKDLGTYDSRLNTFKEPVSELLNPFSGRPYSKIWQKRIETMREIFISYIKS | -2.8
60 | HMDSADADLLRRIEDLLSSRRSVIREARLADMLGVPRDQVARALDLLQERGVIGLTTDSGMKRIAFRRN | -0.356
61 | HMKVSDPEAIKLIEQAQVKVIPFLDISEAADIQIALEELKNSEGTGQTDSAKVRLRNLLSPFSYL | 0.577
62 | HMSYFNEYEVGDTIRVVNGPLADQISTITAIDKEKGLVNISTVFFGRENNVQVSINDIEKYN | 0.0153
63 | HMNIGEKIKTLRENNNISIEELAEKINDSIENILKYENNELEPTLDKKLALSIALGVTLSDLS | 0.971
64 | HMNTLGTNIAKLRESQKLTQEELGKLSGVSRVSIYKIETGQSTPRDTTLQNIAEALHTTPSALRS | 0.0781
65 | HMANKQLQEKLKNYISENGSLSSAAKAIGLSPATLSTYLKDKYEGNVANVETRLTEIFETVEAANNLL | -0.353
66 | HMEEKTMNLPPSAKLVYKILSYEGNLTQKEIINMTYLPERTVRHALELLLGKRLITRQAYLNDARQSVYG | -1.72
67 | HMTKEAIAQKLRIARQESGLTQKDVSAKIGRPQQTIASWEVGRSQPDADTLYSLLLLYKVSPNTFFEYD | -1.18
68 | HMNNLGSKIKELRIAENLTQEKLAEELNVSFQSISRWENGISTPDISLIPAIARFFGVSTDYLFGLQD | -1.82
69 | HMAEERVLSVPQSLAGERLDAALASLMPDYSRSRLASWIKEGLVTVDGAGAMPKQKLWGGETLRVQAQPT | 0.373
70 | HMTGKASEIAALLEQRIAAGDYPAGSKLPSERELAASFHVSRNTIRDAIALLAARKIVSTKWGAGTVVLG | -0.967
71 | HMTENLELLATGSLWTEPDGSGKIISYLIPGLRVKKLETNGIFYKIQLQNGLIGWADQSLFTIAEPK | -1.62
72 | HMTPAIEKTAVIVFINGKKYYVHTVKSGETLYSIAKAYKVDEKVIKEHNPNVADGLRIDQTVKIPVPEQVK | -0.549
73 | HMTEKIEWYKEVLDLEPNSKIFFPLAKMLEKEGELEEARRVLAEGVSRHEEFLEARLFYISVLSRL | -0.301
74 | HMNETSRTRALNILGLKATATQEDIKKAYRSLAKEYHPDKLVGVSEGVKKISEEKFREINEAYEYLI | 0.557
75 | HMEMTGAHLRKKIRAKGFTFQQIADAIGESKQNLSQILSTNNIKTGTLERIAAAMGESVSYF | -0.00766
76 | HMFDVNSMIAANIVAILKKQNRKQIDLAGALQTNKQTISKMLNGSRMINAIELKRIAEFLGVKMEELTKL | -2.23
